Measured values reported in the DeepSol protein solubility set.

Assay: soluble on expression in E. coli; label from the status in PepcDB or PDB records

Sequence	soluble on expression in E. coli
MTDNNKYRDVEIRAPRGNKLTAKSWLTEAPLRMLMNNLDPQVAENPKELVVYGGIGRAARNWECYDKIVETLTRLEDDETLLVQSGKPVGVFKTHSNAPRVLIANSNLVPHWANWEHFNELDAKGLAMYGQMTAGSWIYIGSQGIVQGTYETFVEAGRQHYGGSLKGKWVLTAGLGGMGGAQPLAATLAGACSLNIESQQSRIDFRLETRYVDEQATDLDDALVRIAKYTAEGKAISIALHGNAAEILPELVKRGVRPDMVTDQTSAHDPLNGYLPIGWTWEQYRDRAQTIPAAVVKAAKASMAVHVQAMLDFQKQGVPTFDYGNNIRQMAKEEGVANAFDFPGFVPAYIRPLFCRGVGPFRWAALSGEAEDIYKTDAKVKELIPDDAHLHRWLDMARERISFQGLPARICWVGLGLRAKLGLAFNEMVRSGELSAPVVIGRDHLDSGSVSSPNRETEAMRDGSDAVSDWPLLNALLNTAGGATWVSLHHGGGVGMGFSQHSGMVIVCDGTDEAAERIARVLTNDPGTGVMRHADAGYDIAIDCAKEQGLDLPMITG	soluble
MGSDKIHHHHHHMNFTQNEKLKQLSERSIVIGVDIASELHYARAFDWRGVELGKVFKFENSAEGFKNLYAWIERIKRQAQKDSIVVGAEPTGHYWFGLASYLKEQNIKLVLVNPFHVKRSKELDDNHPSKTDAKDPKTIAKLVIEGRYNEPYIPEGLYAELRIAVTCRVRIQKEMNSIKNRIQRWLKIYFPEHETVFGKFDATSSMLVLQVAPLPRDIERLGVEGINRIWRDNKLRAVGMKRAKSLYEAAQKSIGCTEGESCSRMEIQLLLQDYHTKTAQYQAVTETIDGLCRQIPEVAKLLEIKGVGLVTVAGFLSEVGDIKRFNSPKQIQKLAGLALRESSSGKHKGQTTISKRGRARLRAILFQAVMPLVAKNAEFAEIHNYYTTRTQNPLKKKQSLIALSCKLIRVFYAILTKGTDYDPKKLIMDIHRPVEYLAA	not soluble
MFLVTGATGDIGRRVIRLLREHNHSVRGFARLTSRYGELEHRGANIFIGDLRREQDIEKACQGVQYIISAHGSDNDALTLDYRANIALIDQAKANGVQHFVFISVLGAERGYEDAPVFKAKRAVENYLAASGLNYTILRPAGLASNLLPLAERFRETGLYLLIGDPKNRTSIVSTDDLARIVVDSVTVPEARNQIFSVGGPEILLREDIPQIFSHIFKKEPIVVNSPLLVIDGLRGVLGLINPEAQQALGTFRTLLSNEFFCRKDEIAKLEQTFNFPLETLESFLRRYLAVLEHHHHHH	not soluble
MATIRKADYYYGALLSALVNGGLAPALFEKENDNRQIYEVTTNKASYIMYTKYNTNPSGSKDFTWSFVFSDHEIAEINKIYLEHSKEKEIMFAFVCAQKQPSDSNQVIAIVRWNEFLECVDLQRQQVRGTPRLSIKAVKGSPKLRLYGSKRADVLDGKDHTIKIERNRLNSL	not soluble
MSLATFEKQKIEQAIGSIQGALGVLEKGQMTEIMPPKRIQALPIQQNVDTPEAINAFASMITEYSEMTKISDGPAVKMEEAEDGFILSIPSELLFESGSATITNKEGILFLKRTALEINKLSNDMHIKVIGHTDNDRLRPTATYKDNWELSIARGVNVAKMLLEERVNPARISAGGNGEFDPVASNATPEGKAKNRRVDLYFFSVSKNEEEIKKSQKNSEGHHHHHH	soluble
GMDTRKLLLTAQEISRMKGEHKVHFLNPGAVRVNKSLGDAVGLRHMGIHLIQIEPGKESTEYHLHHYEEEAVYVLSGKGTLTMENDQYPIAPGDFVGFPCHAAAHSISNDGTETLVCLVIGQRLDQDVVDYPNQHKRLYRNNGEWNLVDMADIRVLREPTQK	soluble
MGSDKIHHHHHHMKIFNAMFSKVNGGLEQVFLNYIPALSSQGNLVIPIIHPKAEIRNSCPQDHLITVHNFNQHDFFAIHRLKKLIKIHQPDCIITHSYRAAYLFKKTRTKVPKIAVCHVKGHYDFGTDAIIALTEQMRRDIINSGIEERRVFTIPNLIHIPDGLQYREPKNNQIPIIGVCARFAAIKGVDVFINALAELKKRGVAFQAKIAGDGKEKEQYIELIRHHGLEHEITLLGWIEDKESFYKSIDIFCLPSREESFGLVVLESMMHSLPMVLTRLSGPLEIAGNSGCALFVPPEDPVSMADGLERLLRDKDLSKQLALKAFQRVQHYSSTKVAPMLHKVLEKACEINQQ	not soluble
MAHHHHHHMELCLYNSKNGYLEALLRGFRSSFLTPEEYKKLTEVDTLEDLKSVLEDTDYGSFMMDEPSPIAVTTIAQKCKEKMAHEFNYIRAQAEEPLRTFLDYIAKEKMIDNVIILIHGTLNKKPAEELLSRVDPLGYFPQMKAITTMDVQNSHDDVLKVLLIETPIGTYFDKYISANASNEKNNVTTILNEMDIEILRNTLKKAWLEDFYDFIRELGGKTEEVMGHILKSVADFRVLSVTLNTINSSLSLELQKDRNDMFPCFGYLYPEGTDRIRKCWNNETVQAALENYPTYYNLYEECKQFYMKNENMQDSKIVDHKVKSLEDLLYVKLVKLCETAFDQHCHFGIFYAWVKLKEQEIRNIVWISDMILMNRKDCIDSIIPIFEPQI	not soluble
SMDMKQQNFCVVELLPSDPEYNTVASKFNQTCSHFRIEKIERIQNPDLWNSYQAKKKTMDAKNGQTMNEKQLFHGTDAGSVPHVNRNGFNRSYAGKNAVAYGKGTYFAVNANYSANDTYSRPDANGRKHVYYVRVLTGIYTHGNHSLIVPPSKNPQNPTDLYDTVTDNVHHPSLFVAFYDYQAYPEYLITFRK	soluble
MNENKLRRLIKKNEYEKLDFKLKIELFTESVKKELAKDICAIANSRGGRGYIIIGVEDKTKKIVGVDADYITEERVQQIVASRIEPPVPISLEECFLDGKRLLVIVIFNSYQKPYQIRENGAFYIRRGSTTDIMRKQELLSEFQKGISFNLETCPIVNSNIDFLNEELVRRYFYLKGIKISKENREFLLSSSNIIHKNNISGKSMCTLGGLLVFSDVNSIYIPHNMIKIRNLLGGEQTFIIRGNILDMMKSMEKKLREIVPNEYPVALIIDTIRNILIYRDYSQYNKIVEVVLGKKELTVYCPGEIVKRYRDGRIGYIKRNMWIYEKIISLDSRDGEMNYNLGGKEVKESFTNKVKVITVNEENITKFIFNKYRTIGLEHHHHHH	soluble
MAHHHHHHMNPNQPPRRKTAFNEEFDVMQAIQEDRMAYHASIACHERCVHNYFFNNFYWREKTCMDNCLDKINQATVITNINYGKFEDVESKK	not soluble
MQNDMSVVLRAGKLLIESGAEVYRVEDTMKHFAKALQIENFEAYVVSSSIIASGINRYGKQEAKVCNTDGVTANLGRLEAVNNLSRQIAKQDLVSPEEIVKQLDLIEHQKD	not soluble
MKLIVVTTPTFFVEEDKIITALFEEGLDILHLRKPETPAMYSERLLTLIPEKYHRRIVTHEHFYLKEEFNLMGIHLNARNPSEPHDYAGHVSCSCHSVEEVKNRKHFYDYVFMSPIYDSISKVNYYSTYTAEELREAQKAKIIDSKVMALGGINEDNLLEIKDFGFGGAVVLGDLWNKFDACLDQNYLAVIEHFKKLKKLADLEHHHHHH	soluble
MGSDKIHHHHHHMKVKAPGRINIIGEHTDYNDGYVLPFAVNRYVFLSIEGSERFIFHSENVNETVEMEKIEKLNKWTDYISGVIASFEKRGYRVSPVKISVSSNLPIGAGLSSSAALEVATAYAISEYFGFNVPKLELVKIAREAEVEFVGVRCGIMDQFTAVFGKKDHAIFLDTMTLEYEYVPLKLEGYEINLVDSNVKHELSSSEYNRRRQECEEVLKTLEKKSFREVTKEDLERLSGTLRKRAQHVLEENERVLKSVQALKEGDFETLGKLLFSSHESLRDLYEVSCEETDFIVDYLRGKEGILGARMVGGGFGGGVIVLSKKGAFGKIKEELVESYRKRFGIDLIFHEIESSDGVQKI	not soluble
MRNWKVTGKYPQLDGTGAVASTHIIIAAEDGAVIPQLIKQDLTSTNDTEIIKAALEEFKKSEYVEIAMGEAVQKVDDLEKISQETAKTAKTAQTAAGLAKVSAERTQRMINLQTIHVLTSGGNVEPDIYKGMLELIEPAKQGEYQAYDVFTVVDESHEDQAVEGNLVFVHVNEPFTYEAQTLKDLESEDKVTVIKYADLVKQD	not soluble
GSAGDVTNDLSHVRKIIVACDAGMGSSAMGAGVLRKKIQDAGLSQISVTNSAINNLPPDVDLVITHRDLTERAMRQVPQAQHISLTNFLDSGLYTSLTERLVAAQRHTENEVKVKDSLKDSFDDS	soluble
MVFSKKPITKYITWAIVTSQIPLPVIADSDNEIQSWIAGTASSISPHLQEGTLEDYAKGKIKALPGQAANHLVNEGIKSAFPEIIFRGGVNLEDGAKYRSSEFDMFIPVQETTSSLLFGQLGFRDHDNSSFDGRTYVNVGMGYRQEVNGWLLGVNTFLDADIRYSHLRGGIGGEVYKDSLAFSGNYYFPLTGWKMSAAHELHDERPAYGFDLRTKGTLPDFPWFSGELTYEQYYGDKVDLLGNGTLSRNPRAAGAALVWNPVPLLEVRAGYRDAGNGGSQAEGGLRVNYSFGTPLHEQLDYRNVGAPSNTTNRRAFVDRNYDIVMAYREQASKIRITAMPVSGLSGTLVTLMATVDSRYPVEKVEWSGDAELLAGLQLQGSLGSGLILPQLPLTATDGQEYSLYLTVTDSRGTRVTSERIPVRVTQDETSFRSWINVINDDVQVEDGNFVINTPLPAGEEGKVIEWHYVRERSEEEWASLKPRHIKYQSDTPGLAFKALGGTERDGHWVERVLVTHIGDDARSLKLHIEASGPDDKHPVKGTVLLQAQSDSIAQKVTSVEVLFTPGTEEANGSVTAPVVGTEMRARTLCVNNTDCTDAFNYQWEISDEMKSWQSVPGATKATWLLPYSLNGESLQNKYIRVRIISDKGNAKGNTATSDAN	not soluble
GSMEPGPDGPAASGPAAIREGWFRETCSLWPGQALSLQVEQLLHHRRSRYQDILVFRSKTYGNVLVLDGVIQCTERDEFSYQEMIANLPLCSHPNPRKVLIIGGGDGGVLREVVKHPSVESVVQCEIDEDVIQVSKKFLPGMAIGYSSSKLTLHVGDGFEFMKQNQDAFDVIITDSSDPMGPAESLFKESYYQLMKTALKEDGVLCCQGECQWLHLDLIKEMRQFCQSLFPVVAYAYCTIPTYPSGQIGFMLCSKNPSTNFQEPVQPLTQQQVAQMQLKYYNSDVHRAAFVLPEFARKALNDVS	soluble
MGSDKIHHHHHHMTAANTQHVEHINECTLESVIDLIRDADKPMVFKGLCHHWPLVQAGLESAQSAMTYLRQFYQGMPVTAYYVPPEQHGRVFYNEQLDGFNYQAGRLDFNQLLDRLSQEMIKDMPAGMYMGSTDIHQCLPGLGAQNSLDLAPMQPLTSIWLGNQTKVAAHYDFPLNLACNVVGKRTFTLFPPEQISNLYVGPMELAPGGQDISLVDMANPDFERFPRFQHALDASLTAELSPGDVLFIPSMWWHHVRGVDDFNVLITHWWRDTPGFLGRPNNALLHSILSLRSLPKAQRQAWKSIFEHYIFDHDDVDDSHIPDNVKGMQTKPLDELTARKIRADLINKLKR	not soluble
MSLKIGIVGPGAIGLLYTFYLQKSNQDVTLFTRTAKQAEELNETGVTCIRDGRCETVYPPVLPIESMVAQNLDYIFISVKQYHIDDVLPFVEGASSLIFLQNGMSHLQKMLKIGSENIAVGIVEHGAKKEGGHIVHHTGIGVTKFGVVCGQSIHFKKIFRYFPVTYFPVQIETDWEEIMHKKLVVNVCINPLTALLGVKNGELITNRFFYQMMEQVFQEVAFLIRGEKEMVWQMVRNVCEGTSRNTSSMLADVRANRQTEINAIVGYVLEEAKKQQLPVPTLQFLFDAIKGLETREGHHHHHH	not soluble
